We go through six substances from patent publication US20200087416A1.

What is called Kd is the free concentration of one partner at which half of the binding sites on the other are occupied at equilibrium, for simple one-to-one binding. A higher Kd goes with a looser complex.

The target of assay [1] is cynomolgus PCSK-9 (cynomolgus). The assay is described as follows: BLI (ForteBio), IgG on AHQ sensor, 100 nM antigen.
For assay [2], the target named is human PCSK9 (PCSK9 antigen, SEQ ID NO. 53) (human). As to the kind of experiment: flow cytometry, PCSK9 left on CHO-LDLR cells (anti-His-FITC) after premix with 1000 nM control IgG. (In flow cytometry, cells or beads pass a laser one at a time.)
For assay [3] the target is unchanged. As to the kind of experiment: flow cytometry, PCSK9 left on CHO-LDLR cells (anti-His-FITC) after premix with 100 nM control IgG.
Assay [4] has the same target. The assay is described as follows: cell-based or functional assay.
The target is the same in assay [5]. As to the kind of experiment: flow cytometry, PCSK9 left on CHO-LDLR cells (anti-His-FITC) after premix with 1 nM control IgG.
Assay [6] has the same target. The assay is described as follows: flow cytometry, PCSK9 left on CHO-LDLR cells (anti-His-FITC) after premix with 0.1 nM control IgG.
For assay [7] the target is unchanged. As to the kind of experiment: flow cytometry, PCSK9 left on CHO-LDLR cells (anti-His-FITC) after premix with 10 nM control IgG.
For assay [8] the target is unchanged. The assay is described as follows: MSD-SET, Fab with biotin-PCSK9 in solution, IgG on plate, pH 6.0.
For assay [9] the target is unchanged. As to the kind of experiment: MSD-SET, Fab with biotin-PCSK9 in solution, IgG on plate, pH 7.4.
Assay [10] has as its target cynomolgus PCSK-9 (cynomolgus). The assay is described as above.
Another assay has as its target murine PCSK-9 (murine) (UniProt Q80W65). The description is as above.

On to Bococizumab (antibody), for which the dissociation constant Kd in assay [1] amounted to 0.476 nM.

In assay [2], IgG (negative control) (antibody) displayed a Fluorescence Signal Value of 8920. For the same substance, the Fluorescence Signal Value in assay [3] came out at 7520. In addition, in [4], the BODIPY-LDL uptake by HepG2 cells, fluorescence, 4.2 nM, replicate 1 was 0.358; the BODIPY-LDL uptake by HepG2 cells, fluorescence, 4.2 nM, replicate 2 is 0.325; the BODIPY-LDL uptake by HepG2 cells, fluorescence, 16.8 nM, replicate 1 came out at 0.297; the BODIPY-LDL uptake by HepG2 cells, fluorescence, 16.8 nM, replicate 2 turned out to be 0.309. In addition, in assay [4], the BODIPY-LDL uptake by HepG2 cells, fluorescence, 66.7 nM, replicate 1 came to 0.329 and the BODIPY-LDL uptake by HepG2 cells, fluorescence, 66.7 nM, replicate 2 was 0.288. The substance also returned a Fluorescence Signal Value in assay [5] of 6730. This substance gave a Fluorescence Signal Value in assay [6] of 7000. The Fluorescence Signal Value in [7] was found to be 6960.

Consider Alirocumab Fab, for which the Kd came out at 0.051 nM in assay [8], 0.072 nM in assay [9], 0.082 nM in assay [10] and 0.3 nM with murine PCSK-9 (murine).

In turn, Evolocumab (antibody) came in with a Kd in [1] of 1.3 nM.

With Alirocumab (antibody), in [1], the Kd is 0.383 nM.

In the case of Evolocumab Fab, the equilibrium dissociation constant (Kd) was 0.016 nM in assay [9] and 0.0082 nM in [10].
